We go through 3 molecules from PMC8294578.

Test [1] addresses factor V (FV) (human (endogenous in human plasma)).
For test [2], the target named is mannan binding lectin-associated serine proteases (MASPs) (human (endogenous in human serum)).
The target in test [3] is mannan-binding lectin (MBL) (human (endogenous in human serum)) (UniProt P11226).
Test [4] shares this target. This is another data set of the same source.

UniProt P11226, sequence (P11226 21-248): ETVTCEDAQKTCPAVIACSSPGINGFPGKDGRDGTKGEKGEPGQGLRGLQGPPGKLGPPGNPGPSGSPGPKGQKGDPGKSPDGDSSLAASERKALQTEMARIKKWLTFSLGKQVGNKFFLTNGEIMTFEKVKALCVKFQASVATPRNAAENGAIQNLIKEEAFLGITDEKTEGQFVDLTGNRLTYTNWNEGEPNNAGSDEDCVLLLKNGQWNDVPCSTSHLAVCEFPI

In test [1], “D70-L104 Salp14 (from UniProt Q95WY7 91-125) (peptide)” showed a decrease of prothrombinase activity in the FV(a) inhibition assay (1/1000 diluted human plasma, 20 pM FXa, 100 nM peptide) of 40 % decrease. In test [2], this molecule registered an EC50 of inhibition of lectin pathway activation in human serum (mannan-coated wells, ELISA, C4b deposition) of 17 µM.

Molecule “tick salivary lectin pathway inhibitor (TSLPI) from Ixodes scapularis (natural protein)” showed an EC50 of inhibition of lectin pathway activation in human serum (mannan-coated wells, ELISA, C4b deposition) in test [3] of 25 µM. Besides, the EC50 of inhibition of MBL deposition on mannan-coated wells from human serum (ELISA, anti-MBL antibody) in test [4] turned out to be 90 µM.

B1: BaSO4-adsorbing protein 1 (BSAP1) from Ornithodoros savignyi (natural protein)
chain: MDSEFPCPRKQQPAGNSECSYYCEMNGQWKLGKFQNGARCDYNAVKDGVCNEGLCYASGDSASNTQNQGGSRRQENEDQGDDEWDRK
The molecule B1 returned an EC50 of inhibition of lectin pathway activation in human serum (mannan-coated wells, ELISA, C4b deposition) in test [3] of 8 µM. In test [4], this molecule came in with an EC50 of inhibition of MBL deposition on mannan-coated wells from human serum (ELISA, anti-MBL antibody) of 26 µM.
